The results in this text go back to publication PMC11370617.

Test [1] deals with Mus musculus arginyltransferase 1 isoform 1 (MmATE1-1), affinity tag cleaved, apo (Mus musculus) (UniProt Q9Z2A5). The test can be described thus: SEC-MALS. On the technique in general: SEC sorts molecules by how far they enter the pores of the column.
In test [2] the target is Mus musculus arginyltransferase 1 isoform 1 (MmATE1-1), affinity tag intact, apo (Mus musculus) (UniProt Q9Z2A5). Kind of test: SEC-MALS.

Bounds are passed on as bounds.

In the case of “Mus musculus arginyltransferase 1 isoform 1 (MmATE1-1), affinity tag cleaved, apo (from UniProt Q9Z2A5 1-516) (enzyme)”, in test [1], the percent of the total protein that is dimeric was less than 20%.

Consider “Mus musculus arginyltransferase 1 isoform 1 (MmATE1-1), affinity tag intact, apo (from UniProt Q9Z2A5 1-516) (enzyme)”, for which the percent of the total protein that is dimeric in test [2] is less than 20%.
